Test results taken from the Human Domainome abundance scans (Beltran et al. 2025).

B1: Homeobox protein cut-like 1, residues 941 to 1008; numbered along this chain, P39880 (parent)
chain: QEVDTIELTRQVKEKLAKNGICQRIFGEKVLGLSQGSVSDMLSRPKPWSKLTQKGREPFIRMQLWLNG

Variants of: B1
Experiment: abundance fitness (aPCA) (normalised: wild type 0, dead -1); higher = more abundant; growth selection in yeast, the domain comes from the species named
Settings: Homo sapiens

Abundance fitness: each site, then its substitutions
L31: F -0.11, I -0.278, E -0.486, W -0.138, C -0.255, M -0.191, A -0.273, V -0.242, P -0.233, G -0.256, K -0.233, D -0.425, N -0.319, R -0.15, Y -0.351, H -0.313, T -0.393
F26: W 0.03, K -0.45, D -1.05, Q -0.721, M -0.459, R -0.526, E -0.883, G -0.622, V -0.648, Y -0.741, N -0.991, I -0.45, C -0.709, S -0.704, L -0.312, A -0.649, T -0.796, P -0.574, H -0.927
C22: N -0.192, K -0.229, S 0.049, T 0.02, F -0.133, E -0.155, Y -0.28, M -0.062, Q -0.256, P -0.069, V -0.196, R -0.16, D -0.045, W -0.161, L -0.102, G -0.27, H -0.006, A -0.053
Q23: V -0.321, N -0.133, M -0.195, G -0.28, W -0.044, R -0.019, E -0.068, C -0.281, L -0.038, Y -0.162, D -0.429, K -0.245, I -0.537, F -0.265, A -0.161, T -0.104, P -0.044, S -0.029, H -0.117
G32: T -0.29, Y -0.415, N -0.204, K -0.1, C -0.266, L -0.273, F -0.313, H -0.096, A -0.096, E -0.411, M -0.226, W -0.377, S -0.195, P -0.21, D -0.311, R -0.029, I -0.584, Q -0.138, V -0.645
K29: I -0.57, Y -0.492, M -0.254, L -0.516, W -0.273, S -0.12, N 0.365, P -0.431, G -0.17, F -0.524, A -0.258, V -0.195, T 0.027, H -0.121, C -0.148, E 0.039, D -0.202, R -0.05
G36: A 0.067, F -0.026, P -0.055, T 0.003, L -0.025, N -0.014, D 0.028, Q 0.039, S -0.02, I -0.078, K -0.026, C -0.02, R 0.033, M -0.058, V -0.084, E 0.107
I21: M -0.1, K -0.381, L -0.08, R -0.402, D -0.559, A -0.489, P -0.319, F -0.115, Q -0.184, H -0.425, N -0.283, W 0, Y 0.019, G -0.473, E -0.22, T -0.197, C -0.419
G20: I -0.361, T -0.087, Y -0.104, W -0.287, H -0.24, M -0.231, C -0.317, A -0.135, K 0.046, L -0.277, S -0.112, R -0.048, F -0.239, Q 0.067, D -0.279, P -0.141, E -0.331, V -0.441
L33: G -0.219, Q -0.232, P -0.49, A -0.079, Y -0.229, M -0.045
